Data: the supplement of paper PMC9112550, “Optimization of the antimicrobial peptide Bac7 by deep mutational scanning” (BMC Biology, 2022)
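Note: peptides expressed intracellularly from a pBAD plasmid library in pooled LB shake-flask culture, induced with 0.3% L-arabinose, DNA abundance read by NGS, three biological replicates, DESeq2 with apeglm shrinkage.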

Each sequence was assayed on Escherichia coli TOP10 (assay: shrunken log2 fold change of peptide-encoding DNA abundance (4.5 h post-induction vs induction); higher = less antimicrobial activity (less host growth inhibition)). Details: time post-induction: 4.5 h; library: site-saturation at positions 5, 18, 19, 20.
In the case of RRIRGRPPRLPRPRPRPMFMPRP, the “shrunken log2 fold change” value is reported as 0.0699.
With RRIRDRPPRLPRPRPRPDVAPRP the “shrunken log2 fold change” value was 0.0356.
RRIRWRPPRLPRPRPRPWAMPRP was tested, and the “shrunken log2 fold change” value was 0.0321.
RRIRYRPPRLPRPRPRPFAQPRP was tested, and the “shrunken log2 fold change” value was -0.159.
In the case of RRIRSRPPRLPRPRPRPPSLPRP, the “shrunken log2 fold change” value is reported as -0.119.
RRIRTRPPRLPRPRPRPTPGPRP was tested, and the “shrunken log2 fold change” value was 0.296.
RRIRWRPPRLPRPRPRPFTAPRP was tested, and the “shrunken log2 fold change” value was -0.0343.
In the case of RRIRRRPPRLPRPRPRPSNRPRP, the “shrunken log2 fold change” value is reported as -0.0253.
With RRIRIRPPRLPRPRPRPRRYPRP the “shrunken log2 fold change” value was 0.111.
For RRIRIRPPRLPRPRPRPQQFPRP, the “shrunken log2 fold change” value was -0.709.
RRIRSRPPRLPRPRPRPINDPRP was tested, and the “shrunken log2 fold change” value was -0.113.
In the case of RRIRSRPPRLPRPRPRPPPVPRP, the “shrunken log2 fold change” value is reported as 0.745.
In the case of RRIRQRPPRLPRPRPRPVQYPRP, the “shrunken log2 fold change” value is reported as -0.0137.
RRIRKRPPRLPRPRPRPKHRPRP was tested, and the “shrunken log2 fold change” value was 0.237.
RRIRKRPPRLPRPRPRPTVTPRP was tested, and the “shrunken log2 fold change” value was 0.229.
With RRIRERPPRLPRPRPRPMKSPRP the “shrunken log2 fold change” value was -0.163.
With RRIRQRPPRLPRPRPRPHDLPRP the “shrunken log2 fold change” value was -0.046.
RRIRFRPPRLPRPRPRPEADPRP was tested, and the “shrunken log2 fold change” value was 0.24.
With RRIRGRPPRLPRPRPRPYSCPRP the “shrunken log2 fold change” value was 0.131.
With RRIRDRPPRLPRPRPRPKIVPRP the “shrunken log2 fold change” value was -0.198.
In the case of RRIRYRPPRLPRPRPRPNNFPRP, the “shrunken log2 fold change” value is reported as -0.418.
RRIRGRPPRLPRPRPRPAKRPRP was tested, and the “shrunken log2 fold change” value was 0.504.
RRIRDRPPRLPRPRPRPVRYPRP was tested, and the “shrunken log2 fold change” value was 0.152.
RRIRFRPPRLPRPRPRPTIKPRP was tested, and the “shrunken log2 fold change” value was -0.223.
For RRIRCRPPRLPRPRPRPNMRPRP, the “shrunken log2 fold change” value was 0.357.
RRIRHRPPRLPRPRPRPRETPRP was tested, and the “shrunken log2 fold change” value was 0.0714.
In the case of RRIRDRPPRLPRPRPRPCINPRP, the “shrunken log2 fold change” value is reported as 0.224.
In the case of RRIRNRPPRLPRPRPRPGDCPRP, the “shrunken log2 fold change” value is reported as 0.404.
RRIRGRPPRLPRPRPRPTVIPRP was tested, and the “shrunken log2 fold change” value was 0.107.
RRIRPRPPRLPRPRPRPSRWPRP was tested, and the “shrunken log2 fold change” value was 0.611.
With RRIRYRPPRLPRPRPRPHRGPRP the “shrunken log2 fold change” value was -0.192.
In the case of RRIRLRPPRLPRPRPRPNSCPRP, the “shrunken log2 fold change” value is reported as 0.00169.
RRIRLRPPRLPRPRPRPDEYPRP was tested, and the “shrunken log2 fold change” value was -0.000921.
RRIRGRPPRLPRPRPRPIWQPRP was tested, and the “shrunken log2 fold change” value was 0.349.
In the case of RRIRCRPPRLPRPRPRPKWKPRP, the “shrunken log2 fold change” value is reported as 0.329.
With RRIRLRPPRLPRPRPRPQHPPRP the “shrunken log2 fold change” value was -0.132.
In the case of RRIRHRPPRLPRPRPRPIWSPRP, the “shrunken log2 fold change” value is reported as -0.085.
RRIRSRPPRLPRPRPRPPAFPRP was tested, and the “shrunken log2 fold change” value was -0.00342.
RRIRARPPRLPRPRPRPCSDPRP was tested, and the “shrunken log2 fold change” value was 0.431.
RRIRKRPPRLPRPRPRPYIDPRP was tested, and the “shrunken log2 fold change” value was -0.194.
RRIRLRPPRLPRPRPRPYLEPRP was tested, and the “shrunken log2 fold change” value was -0.169.
In the case of RRIRSRPPRLPRPRPRPTCGPRP, the “shrunken log2 fold change” value is reported as 0.468.
For RRIRVRPPRLPRPRPRPDFKPRP, the “shrunken log2 fold change” value was 0.0385.
With RRIRQRPPRLPRPRPRPQSHPRP the “shrunken log2 fold change” value was -0.309.
In the case of RRIRPRPPRLPRPRPRPFAWPRP, the “shrunken log2 fold change” value is reported as 0.169.
With RRIRNRPPRLPRPRPRPEWFPRP the “shrunken log2 fold change” value was -0.00884.
For RRIRGRPPRLPRPRPRPTYLPRP, the “shrunken log2 fold change” value was 0.132.
With RRIRWRPPRLPRPRPRPYYVPRP the “shrunken log2 fold change” value was -0.213.
With RRIRSRPPRLPRPRPRPTTLPRP the “shrunken log2 fold change” value was -0.0324.
In the case of RRIRTRPPRLPRPRPRPTVHPRP, the “shrunken log2 fold change” value is reported as -0.199.
For RRIRVRPPRLPRPRPRPFLEPRP, the “shrunken log2 fold change” value was 0.0733.
RRIRTRPPRLPRPRPRPHILPRP was tested, and the “shrunken log2 fold change” value was -0.00363.
With RRIRERPPRLPRPRPRPQADPRP the “shrunken log2 fold change” value was -0.171.
In the case of RRIRNRPPRLPRPRPRPHITPRP, the “shrunken log2 fold change” value is reported as -0.399.
In the case of RRIRFRPPRLPRPRPRPPECPRP, the “shrunken log2 fold change” value is reported as -0.0973.
In the case of RRIRARPPRLPRPRPRPQMMPRP, the “shrunken log2 fold change” value is reported as 0.129.
RRIRIRPPRLPRPRPRPLLDPRP was tested, and the “shrunken log2 fold change” value was -0.444.
In the case of RRIRPRPPRLPRPRPRPCFMPRP, the “shrunken log2 fold change” value is reported as -0.269.
For RRIRKRPPRLPRPRPRPWGTPRP, the “shrunken log2 fold change” value was 0.341.
For RRIRSRPPRLPRPRPRPHAFPRP, the “shrunken log2 fold change” value was -1.44.
RRIRKRPPRLPRPRPRPWATPRP was tested, and the “shrunken log2 fold change” value was 0.546.
In the case of RRIRCRPPRLPRPRPRPTKEPRP, the “shrunken log2 fold change” value is reported as -0.0808.
With RRIRARPPRLPRPRPRPVGEPRP the “shrunken log2 fold change” value was 0.482.
For RRIRCRPPRLPRPRPRPCQPPRP, the “shrunken log2 fold change” value was -0.149.
RRIRFRPPRLPRPRPRPKYWPRP was tested, and the “shrunken log2 fold change” value was -0.176.
For RRIRHRPPRLPRPRPRPPPYPRP, the “shrunken log2 fold change” value was 0.00808.
RRIRTRPPRLPRPRPRPAYAPRP was tested, and the “shrunken log2 fold change” value was 0.0376.
In the case of RRIRNRPPRLPRPRPRPESVPRP, the “shrunken log2 fold change” value is reported as -0.145.
In the case of RRIRNRPPRLPRPRPRPLECPRP, the “shrunken log2 fold change” value is reported as -0.311.
In the case of RRIRCRPPRLPRPRPRPIILPRP, the “shrunken log2 fold change” value is reported as -0.354.
In the case of RRIRDRPPRLPRPRPRPVQIPRP, the “shrunken log2 fold change” value is reported as -0.0711.
For RRIRNRPPRLPRPRPRPTHPPRP, the “shrunken log2 fold change” value was -0.235.
With RRIRSRPPRLPRPRPRPHDQPRP the “shrunken log2 fold change” value was 0.276.
In the case of RRIRMRPPRLPRPRPRPGHHPRP, the “shrunken log2 fold change” value is reported as 0.209.
RRIRHRPPRLPRPRPRPMASPRP was tested, and the “shrunken log2 fold change” value was -0.0864.
